Reference: PMC12848000

Key:
[1] = target: non-neddylated CUL1/RBX1 (StrepII2x-CUL1/RBX1), wild type (human) (UniProt Q13616); assay: SPR; StrepII2x-CUL1/RBX1 (non-neddylated) captured on a Strep-Tactin CM5 chip (~100 RU), CSN injected in single cycle (40-5120 nM, 180 s contact), 25 C, HBS-P+ with 1 mM TCEP; steady-state fit, 1:1 Langmuir
[2] = target: neddylated CUL1/RBX1 (StrepII2x-^N8CUL1/RBX1), wild type (UniProt Q13616); assay: SPR; StrepII2x-^N8CUL1/RBX1 captured on a Strep-Tactin CM5 chip (~100 RU), CSN injected in single cycle (0.625-80 nM, 80 s contact), 25 C, 10 mM HEPES pH 7.4, 150 mM NaCl, 0.05% Tween 20, 1 mM TCEP; steady-state fit, 1:1 Langmuir
[3] = target: ^P32-His-PKA-N8CUL1/RBX1 (CUL1/RBX1 neddylated with His-PKA-NEDD8, 32P-labelled) (UniProt Q13616)
^P32-His-PKA-N8CUL1/RBX1 (CUL1/RBX1 neddylated with His-PKA-NEDD8, 32P-labelled), sequence (Q13616 whole entry, chain 1 of 3): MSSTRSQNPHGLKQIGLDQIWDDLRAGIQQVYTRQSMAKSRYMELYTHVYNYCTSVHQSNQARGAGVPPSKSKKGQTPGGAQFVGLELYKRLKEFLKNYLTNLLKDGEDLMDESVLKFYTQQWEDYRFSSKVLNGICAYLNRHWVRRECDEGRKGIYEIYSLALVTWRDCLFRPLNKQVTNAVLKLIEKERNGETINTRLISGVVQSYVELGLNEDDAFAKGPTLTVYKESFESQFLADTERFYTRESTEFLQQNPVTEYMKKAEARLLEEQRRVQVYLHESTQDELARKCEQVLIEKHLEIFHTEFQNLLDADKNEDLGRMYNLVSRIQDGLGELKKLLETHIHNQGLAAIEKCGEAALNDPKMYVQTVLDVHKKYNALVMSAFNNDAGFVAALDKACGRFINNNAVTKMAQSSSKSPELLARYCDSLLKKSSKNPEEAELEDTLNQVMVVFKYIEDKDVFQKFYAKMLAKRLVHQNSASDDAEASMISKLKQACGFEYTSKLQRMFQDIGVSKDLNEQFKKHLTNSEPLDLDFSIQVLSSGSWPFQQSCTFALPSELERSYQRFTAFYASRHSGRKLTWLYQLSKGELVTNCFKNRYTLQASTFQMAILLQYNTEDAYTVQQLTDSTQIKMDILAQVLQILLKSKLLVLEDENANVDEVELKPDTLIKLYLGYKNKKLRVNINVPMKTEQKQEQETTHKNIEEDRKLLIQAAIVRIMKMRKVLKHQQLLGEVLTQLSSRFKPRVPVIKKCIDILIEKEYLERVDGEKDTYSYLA
^P32-His-PKA-N8CUL1/RBX1 (CUL1/RBX1 neddylated with His-PKA-NEDD8, 32P-labelled), sequence (P62877 whole entry, chain 2 of 3, further chain): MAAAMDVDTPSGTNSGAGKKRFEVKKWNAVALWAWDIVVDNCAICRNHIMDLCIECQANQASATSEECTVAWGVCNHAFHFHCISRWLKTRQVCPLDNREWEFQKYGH
^P32-His-PKA-N8CUL1/RBX1 (CUL1/RBX1 neddylated with His-PKA-NEDD8, 32P-labelled), sequence (Q15843 1-76, chain 3 of 3, further chain): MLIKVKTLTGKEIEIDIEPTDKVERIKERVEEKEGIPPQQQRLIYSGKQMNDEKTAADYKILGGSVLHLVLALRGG

non-neddylated CUL1/RBX1 (StrepII2x-CUL1/RBX1), wild type (human), sequence (Q13616 whole entry, chain 1 of 2): as the sequence (Q13616 whole entry, chain 1 of 3) above
non-neddylated CUL1/RBX1 (StrepII2x-CUL1/RBX1), wild type (human), sequence (P62877 whole entry, chain 2 of 2, further chain): as the sequence (P62877 whole entry, chain 2 of 3, further chain) above
neddylated CUL1/RBX1 (StrepII2x-^N8CUL1/RBX1), wild type, sequence (Q13616 whole entry, chain 1 of 3): as the sequence (Q13616 whole entry, chain 1 of 3) above
neddylated CUL1/RBX1 (StrepII2x-^N8CUL1/RBX1), wild type, sequence (P62877 whole entry, chain 2 of 3, further chain): as the sequence (P62877 whole entry, chain 2 of 3, further chain) above
neddylated CUL1/RBX1 (StrepII2x-^N8CUL1/RBX1), wild type, sequence (Q15843 1-76, chain 3 of 3, further chain): as the sequence (Q15843 1-76, chain 3 of 3, further chain) above

Kd [1] [nM]	Kd [2] [nM]	in vitro deneddylation activity, normalised to CSN^5WT [3] [% reduction]	Substance
90	6	–	8CSN^5H138A (CSN^5H138A complex without CSNAP: CSN1-8, CSN5 H138A) (from UniProt Q13098 1-491; P61201 1-443; Q9UNS2 1-423; Q9BT78 1-406; Q92905 1-334; Q7L5N1 1-327; Q9H9Q2 1-264; Q99627 1-209)
–	–	> 50	CSN^5T105F (9CSN with CSN5 T105F) (from UniProt Q13098 1-491; P61201 1-443; Q9UNS2 1-423; Q9BT78 1-406; Q92905 1-334; Q7L5N1 1-327; Q9H9Q2 1-264; Q99627 1-209; Q8WXC6 1-57) (complex)
